This assay has as its target T1, recombinant human RANK-hFc fusion protein (human, UniProt Q9Y6Q6 30-212, limits assumed).
T1 construct: also called hRANK; not shown: human Fc (hFc)
T1 sequence (looked up): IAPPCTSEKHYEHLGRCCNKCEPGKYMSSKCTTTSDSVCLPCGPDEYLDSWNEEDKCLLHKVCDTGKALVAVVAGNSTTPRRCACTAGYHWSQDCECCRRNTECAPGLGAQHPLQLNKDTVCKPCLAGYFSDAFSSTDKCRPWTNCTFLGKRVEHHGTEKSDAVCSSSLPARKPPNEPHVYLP
The assay can be described thus: ELISA, human RANKL coated at 10 µg/ml, anti-hFc-HRP detection. The method, then:
To test whether the antibodies generated in mice have neutralizing activity, in vitro binding assays for both mouse and human RANKL and their cognate receptors mouse RANK and human RANK were established. ELISA plates were therefore coated with 10 μg/ml of either mouse or human RANKL protein and incubated with serial dilutions of a recombinant mouse RANK-hFc fusion protein or a recombinant human RANK-hFc fusion protein, respectively. Bound protein was detected with a horse raddish peroxidase conjugated anti-hFc antibody. […] ELISA plates were therefore coated with either mouse or human RANKL protein at a concentration of 10 μg/ml, and co-incubated with serial dilutions of a pool of mouse sera from day 35 and 0.35 nM mouse or human RANK-hFc fusion protein, respectively. Binding of receptor to immobilized RANKL protein was detected with horse raddish peroxidase conjugated anti-hFc antibody.
In general terms: An ELISA detects its analyte on a solid surface through an enzyme-linked reagent.

B1: human RANKL protein (ligand, UniProt O14788 140-317, looked up)
chain: IRAEKAMVDGSWLDLAKRSKLEAQPFAHLTINATDIPSGSHKVSLSSWYHDRGWAKISNMTFSNGKLIVNQDGFYYLYANICFRHHETSGDLATEYLQLMVYVTKTSIKIPSSHTLMKGGSTKYWSGNSEFHFYSINVGGFFKLRSGEEISIEVSNPSLLDPDQDATYFGAFKVRDID
notes: Coated on ELISA plates; also called hRANKL
For the molecule B1, the binding result is “binds”.

The values above are taken from patent US20080019991A1 (CYTOS BIOTECHNOLOGY, published 2008).
